Publication PMC6089081 (Redox Biology, 2018)

Target: the molecule itself
Experiment: native gel or EMSA

B1: GRPEL2 (natural protein)
chain: STATQRTAGEDCRSEDPPDELGPPLAERALRVKAVKLEKEVQDLTVRYQRAIADCENIRRRTQRCVEDAKIFGIQSFCKDLVEVADILEKTTECISEESEPEDQKLTLEKVFRGLLLLEAKLKSVFAKHGLEKLTPIGDKYDPHEHELICHVPAGVGVQPGTVALVRQDGYKLHGRTIRLARVEVAVESQRRL
**Q.** For B1, which “stoichiometry N” value is on record?
**A.** 2
